In patent US20260275312, “CRISPR NUCLEASE POLYPEPTIDES AND GENE EDITING SYSTEMS COMPRISING SUCH” (ARBOR BIOTECHNOLOGIES, INC., published 2026) one finds activity data, which are given here for one molecule.

Data set [1] concerns the target T1, Nuclease S H280R/T72R/I845R (synthetic construct, H280R,T72R,I845R).
T1 chain: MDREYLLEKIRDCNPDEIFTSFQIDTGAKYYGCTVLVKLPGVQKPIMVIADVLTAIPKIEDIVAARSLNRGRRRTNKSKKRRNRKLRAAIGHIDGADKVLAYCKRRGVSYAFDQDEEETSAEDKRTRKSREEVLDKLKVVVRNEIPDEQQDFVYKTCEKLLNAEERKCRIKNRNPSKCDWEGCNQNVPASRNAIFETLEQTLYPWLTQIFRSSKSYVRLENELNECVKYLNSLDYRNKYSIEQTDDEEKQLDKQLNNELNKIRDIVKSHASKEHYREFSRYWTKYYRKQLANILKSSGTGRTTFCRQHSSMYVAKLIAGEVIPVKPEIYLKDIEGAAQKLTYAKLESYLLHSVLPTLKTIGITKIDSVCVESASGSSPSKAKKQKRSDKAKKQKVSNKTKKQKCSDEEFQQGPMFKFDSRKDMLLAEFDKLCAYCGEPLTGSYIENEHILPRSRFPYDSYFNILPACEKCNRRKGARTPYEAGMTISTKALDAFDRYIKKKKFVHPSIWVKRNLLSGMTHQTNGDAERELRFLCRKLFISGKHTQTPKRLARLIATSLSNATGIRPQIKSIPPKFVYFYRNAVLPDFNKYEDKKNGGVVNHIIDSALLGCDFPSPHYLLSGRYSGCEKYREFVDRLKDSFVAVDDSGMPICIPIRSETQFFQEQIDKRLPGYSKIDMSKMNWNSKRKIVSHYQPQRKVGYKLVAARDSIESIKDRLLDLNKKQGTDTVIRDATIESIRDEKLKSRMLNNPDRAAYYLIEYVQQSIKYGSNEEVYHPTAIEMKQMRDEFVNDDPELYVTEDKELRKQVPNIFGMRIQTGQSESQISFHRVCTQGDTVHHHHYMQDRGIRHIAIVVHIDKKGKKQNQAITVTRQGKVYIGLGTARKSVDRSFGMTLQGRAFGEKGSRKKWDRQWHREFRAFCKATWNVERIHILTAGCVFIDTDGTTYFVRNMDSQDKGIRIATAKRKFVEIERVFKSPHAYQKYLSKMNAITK
The data set can be described thus: cell_activity; HEK293T; PAM AACC. To be noted: tags: N-term SV40 NLS, XTEN linker + C-term nucleoplasmin NLS. The procedure:
(§1) HEK293T cells were transfected with plasmids expressing the Nuclease S polypeptides and the gRNAs provided herein following the methods provided in Example 1 above. Gene editing efficiencies were determined by NGS following the methods also provided in Example 1. The NGS results were analyzed also following the methods provided in Example 1 above.
(§2) Each Nuclease S variant was cloned as described in Example 6. HEK293T cells were further transfected with a plasmid encoding a Nuclease S variant and a plasmid encoding an RNA guide of Table 11, followed by NGS analysis, as described in Example 5. For each target, indel ratios, referring to the percentage of NGS reads comprising indels, were calculated for the reference Nuclease S (SEQ ID NO: 49) and for each Nuclease S variant. The indel ratios shown in Table 13 were calculated as the average of two bioreplicates, each of which contained two technical replicates.

Data set [2] has as its target T2, Nuclease S W509R/T72R/I845R (synthetic construct, W509R,T72R,I845R).
T2 chain: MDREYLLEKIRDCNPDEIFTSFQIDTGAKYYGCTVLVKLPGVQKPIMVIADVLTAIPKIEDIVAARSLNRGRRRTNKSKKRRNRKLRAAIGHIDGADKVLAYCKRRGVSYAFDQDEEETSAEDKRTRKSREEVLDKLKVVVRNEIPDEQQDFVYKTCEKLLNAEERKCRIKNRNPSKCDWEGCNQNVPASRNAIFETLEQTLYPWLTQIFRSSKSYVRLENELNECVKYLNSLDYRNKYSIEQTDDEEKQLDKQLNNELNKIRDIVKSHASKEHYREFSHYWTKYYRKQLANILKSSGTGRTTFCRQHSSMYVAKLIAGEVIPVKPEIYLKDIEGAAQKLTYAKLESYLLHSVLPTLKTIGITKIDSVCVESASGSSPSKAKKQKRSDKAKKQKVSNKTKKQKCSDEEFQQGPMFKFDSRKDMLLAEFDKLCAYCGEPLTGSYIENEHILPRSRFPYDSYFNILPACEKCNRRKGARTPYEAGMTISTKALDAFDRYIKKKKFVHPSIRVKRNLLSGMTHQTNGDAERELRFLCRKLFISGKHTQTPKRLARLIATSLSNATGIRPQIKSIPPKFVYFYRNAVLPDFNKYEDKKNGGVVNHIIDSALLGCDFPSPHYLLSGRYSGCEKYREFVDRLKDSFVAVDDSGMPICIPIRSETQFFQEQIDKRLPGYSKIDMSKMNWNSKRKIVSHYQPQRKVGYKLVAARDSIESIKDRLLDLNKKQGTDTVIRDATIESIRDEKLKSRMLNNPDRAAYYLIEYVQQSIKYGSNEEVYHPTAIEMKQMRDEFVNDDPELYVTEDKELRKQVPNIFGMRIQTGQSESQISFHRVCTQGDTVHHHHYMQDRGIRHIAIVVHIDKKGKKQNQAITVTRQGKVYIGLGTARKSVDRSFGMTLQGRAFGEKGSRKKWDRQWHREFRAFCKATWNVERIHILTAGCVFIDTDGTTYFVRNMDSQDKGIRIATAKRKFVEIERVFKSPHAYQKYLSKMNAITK
In words: cell_activity; HEK293T; PAM AACC. To be noted: tags: N-term SV40 NLS, XTEN linker + C-term nucleoplasmin NLS. As for the experimental part: as §1, §2

B1: S AAVS1-T7 RNA guide ; AAVS1-T7 target (S) (ssRNA ; dsDNA)
RNA: GGCUAUAAUCCAUGCUGACCGUUGUAUUCGGAUGGGAGUAAAAGGUUGAGUACACCUGGAAACAAAACGACAUAAAGGUGUUCUCCCAUCUGUGUACAAAGAGCAGAUAUAUGAGUUGAUAAGUAAUAUGUUGCACGUAUGGACUUUGACAGUCUGUACCUCUGCGUGAAAGACAUAUUGCGUUAUUCAUAUAUCUGUGAGUCUGUUCUAAAUUUAAAGGUUUAGGGAA
DNA 1: GGCTATAATCCATGCTGACC
DNA 2: GGTCAGCATGGATTATAGCC
On to B1, for which the activity was 0.333 indel ratio in data set [1] and 0.305 indel ratio in data set [2].
